# Reference: the supplement of paper PMC9170038
# Test system: K4 kissing-loop RNA reporter
# Experiment: apparent KD of K4 kissing-loop reporter; higher = weaker reporter binding
# Settings: Eterna round: R107
# Protocol: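 RNA-MaP round R107: designed RNA switches with theophylline, tryptophan, arginine or FMN aptamers are transcribed on-chip within common flanks. They are titrated with a labelled K4 kissing-loop RNA reporter in RNA-MaP buffer (100 mM Tris pH 7.5, 80 mM KCl, 4 mM MgCl2), without ligand or with the indicated ligand. Median apparent KD per design.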
# [1] = input ligand: theophylline 20 uM
# [2] = input ligand: tryptophan 2.4 mM
# 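Further: bound reporter read as fluorescence of individual clusters on recovered sequencing chips by microscopy, with normalized cluster intensities fitted with a binding model.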
Sequence,apparent KD of K4 kissing-loop reporter (input ligand: FMN 200 uM),apparent KD of K4 kissing-loop reporter (input ligand: arginine 13.2 mM),apparent KD of K4 kissing-loop reporter (input ligand: none),apparent KD of K4 kissing-loop reporter [1],apparent KD of K4 kissing-loop reporter [2]
AACUUAAUUUAUAAGCAGUGAUGUUGCUCACGAGGACCGGUACGGCCGCCACUCGAUCGGACUUAGGUCUUCAAUUAUUUCAUUA [JR_ExcTryptoA_Sub017],149 nM,192 nM,163 nM,199 nM,145 nM
UUUAUUUUCUGAGGAUAUCGUUUUACUGAAGUGAUGUUUCAGUAUUUUCAUAUUAUAUAUAAUUUUCGAGAAGGCAGUAUUAUUA [JR_Nu_SSFMNB_Sub027],83.5 nM,60.4 nM,63.7 nM,72.2 nM,64.3 nM
GCCAGAGCGCGAAGGAGCGCCGUGACAGGUUGCUGCCGUGGGCAGUGAUGUUGCUCAAUCUGGCAGGUAGGUCGCGUGCUCUGGC,269 nM,219 nM,273 nM,226 nM,248 nM
AACGCUGGAUGAAUAACAUCUAGCGAAAUUCGAGGACCGGUACGGCCGCCACUCGAGCUAACUGCGAGUGAUGUUCGAUAAUAAA [Mat - Mod of OpenEnded 3 - D5],228 nM,466 nM,327 nM,469 nM,71.4 nM
UGCCGCAAGGCGAGCGCUCCCACUCCGGAAGGAGCGCCCGCAAGGGCAGGUAGGUCGCCGGAGUGAUGUUCCGGUGGAGGGCUCG [#2 Exclusion - Arginine A Attempt #25 (Inspired by Omei)],201 nM,188 nM,174 nM,164 nM,157 nM
CGAACCUCCAAAGGAUAUCUCGUUUAGUGAUGUUUUGCGUAGUAUCAGGAUAGAAUAUUGAUUCAGAGAGAAGGUUGACGUUGGU [theeternabot_exclusion_KL_FMN_B_14],733 nM,428 nM,684 nM,511 nM,537 nM
UAUAUAGUGACGGCCGCCACUAUAGUGAUGUUAUUGUUAGAGUGAUGUUUUGUUGUUUAAUUUUGUAGGACCGGGUUAUAUGUUA [tbbtmullin],632 nM,418 nM,504 nM,497 nM,446 nM
GCGGGCCAGACGGCCGCCACUCCGGGCAGUGAUGUUGCGAAACUUCUACUAGAGUGAUGUUCUACGAGGACCGGGUCGGAACGCG [Exclusion Tryptophan B Gf 13],789 nM,703 nM,951 nM,1000 nM,578 nM
UUGGUCUUUUAAGGAUAUCAUACUCCACUGAGCGAGUGAUGUUCGCUCCUGUUACGCCUGGGACCGUGAGAAGGUAAAGUACCGU [theeternabot_sameState_KL_FMN_B_5],149 nM,138 nM,163 nM,147 nM,137 nM
AUUUAUGUAUCAGGAUAUUAGUGAUGUUUGUUUUUGUUAGUGAUGUUGAUAUUUGUUUUAUGUAUUUAAGAAGGGAUUGAGAUGU [wwewmullin],58.2 nM,18.5 nM,34.7 nM,24.2 nM,45.2 nM
UGUCAUUGGUCGGCCGCCACUAGAAGGUCAAAGACCAUAGAGUGAUGUUCUAAGACGAAAGUCACUAGGACCGGGACCGAUGACU [TrypBS 1 #SwitchBubble #K4Middle],744 nM,1080 nM,899 nM,946 nM,207 nM
GUUAUGGACCUUUUGAUCGUUCGUAGCGAUACCAGACAAUGGGCAGUCCCUUGGCAGCGCUAAUUGAGUGAUGUUCAAACGUGCA [theeternabot_exclusion_KL_Theo_A_46],730 nM,309 nM,680 nM,331 nM,364 nM
UCCUUUUUUGCCAGUGAUGUUGGACAGGAAGGAGCGGGCAUAAGCCCAGGUAGGUCGCCUGUCAACUUUCUUAUAGCCCUAAGGU [Edveza],271 nM,226 nM,236 nM,210 nM,245 nM
CGUUUAUAGCAGGAUACCAGUACCCAUAAAGUACGUUAAUAGUAGAGUGAUGUUCUAAAGUACCCUUGGCAGCUUCGAGUGAGUG [ExTheophylB.R],72.5 nM,114 nM,85.1 nM,103 nM,54 nM
ACGACGCAUAGUGAUACCAGCAUUAUAUGAGUGAUGUUCUACCUAAAAUGGUAAUAAUGAUGCCCUUGGCAGCACUAUGCGUCAG [KL-SSTheoB2],400 nM,453 nM,461 nM,638 nM,283 nM
CAACGAGUGAUGGUCGUUGACGGCCAUCCCGAGGAUAUGGGAUUAUCCAGAAGGCGGGAUCGCCGGGAGUGAUGUUCCCUGAUCA [Same State FMN A GF 14],139 nM,181 nM,168 nM,300 nM,151 nM
AAUGUAUACUGAAGGAGCGAGUAGUGGAAACAUAAACUCAAUGCGAGUGAUGUUCGCAGUACUCAGGUAGGUCGCAGUAAUGGUA [Exclusion Arginine B Gf 8],522 nM,311 nM,537 nM,468 nM,406 nM
CAUAGGAAACUAUGUUUCUCUCUUACUGAAGGAGCGCGUGAAAACGCAGGUAGGUCGCAGAAUUUGAGAGUGAUGUUCUCAUUAA [Ex Arginine A K4 14],119 nM,211 nM,175 nM,201 nM,127 nM
AGGUGAGAGUGAAGGAGCGAUCGCGCCAGUGAUGUUGGUGAGCAUGACGAAAGUCAUGCCGAUCAGGUAGGUCGCACUCUUACUC [Omei KL Arginine B SS B v3],700 nM,421 nM,663 nM,547 nM,798 nM
GGAUAGGACAGAGGAUAUGGACAGUCUACAAAGUAGGCUGAAAAUCCUUGAAUGGAAGUGAUGUUUCUAGAAGGCUGUCCUAUCG [FmnBX 19 - #SwitchBubble #StaticStem #Palindromic],800 nM,160 nM,190 nM,174 nM,180 nM
CAAAUGUUGUCAGGAUAUGAGCGCAGUGAUGUUGCGGUUGUAUUUAUGACUGGAGCAGCGUAAGCCUCAGAAGGGACAAGUUGCC [Qubioran],167 nM,92.2 nM,106 nM,84.9 nM,99.3 nM

Sequence,apparent KD of K4 kissing-loop reporter (input ligand: FMN 200 uM),apparent KD of K4 kissing-loop reporter (input ligand: arginine 13.2 mM),apparent KD of K4 kissing-loop reporter (input ligand: none),apparent KD of K4 kissing-loop reporter [1],apparent KD of K4 kissing-loop reporter [2]
AAAGAUCUUCUAGAAACUAGAAGAUCAAGAGAGGAUAUCCGAAUUCGGAGAAGGCUCGCUAAGUGAUGUUUGGACCCAAAGGGAA [AK3.1 SS FMN A],1100 nM,984 nM,1180 nM,753 nM,1130 nM
GGUAGCAUGGCGGCCGCCACUCAUGUAGAUACCUACAUAGUAAGCAGUGAUGUUGCUUUGUGGUUGAGGACCGGGCCAUGCUACC,167 nM,140 nM,151 nM,161 nM,255 nM
UGGAGUUGACGAAAAGUCAACUCCAGAGAAGGAGCGGACGAAAGUCCAGGUAGGUCGCUCACUACCAGUGAUGUUGGUACUUAAA,68.4 nM,243 nM,170 nM,137 nM,139 nM
AAGUUUUAUAAACUCAUGGUUUCGACAGAUACCAGCUUCGAGAGGAGCCCUUGGCAGCUGCAUGAGUGAUGUUCAUGUACGAAGA [KL-XTheoA8],377 nM,362 nM,480 nM,416 nM,359 nM
GCGCGUCAUGUCAGCGGUGACUAUGUCGAUACCAGCGCCGCAAGGCGCCCUUGGCAGCGACGCGCUGGAGUGAUGUUCCGACGGC [#2 Exclusion - Theophylline A Attempt #9 (HarryS)],144 nM,153 nM,148 nM,159 nM,129 nM
GCGGCCCAGCCGGAUACCAGUGAGCCGCUGGGAACCGCGGGCCCAGAGUGAUGUUCGGGACACCCUUGGCAGCCGCCUGGGUCGC [#2 Same State - Theophylline B Attempt #20 (HarryS)],486 nM,293 nM,643 nM,301 nM,491 nM
AAGUGUGUGGCGGCCGCCACUAGGAUCCAGUGAUGUUGGAGAUAUCUCGUAAGAGAUAUCCGCCAUAGGACCGGGCCAUAUAGAA [Same State - Tryptophan B (Freestyle 16)],862 nM,423 nM,388 nM,161 nM,176 nM
AGUUCUUGCCGAAGGAGCGAGGCAGAGUGAUGUUCUGCAGAGGUCGAAAGACCUCAACUGCCUCAGGUAGGUCGCGGCAUGAACA [Omei KL Arginine B Exc A v6],291 nM,298 nM,563 nM,469 nM,476 nM
GCCGUACGCAUGGAUACCAGCACAGGCCGAAGUGAUGUUUCGUGCGUAUAUUUGUGCUACUGCCCUUGGCAGCCAUGCGUACGGC,75.8 nM,66.9 nM,73.9 nM,66.5 nM,75.2 nM
UGAUACCAGACGGCCGCCACUAGGACCGGGAGUGAUGUUCCGAAAAUUAAAUGCUCGGCCGCCACUAGGACCGGGUCUGGUAUCU [TrypBX 28 #DoubleAptamer #SwitchBubble],478 nM,253 nM,308 nM,349 nM,128 nM
UCUGUUGUAUAUGAUACCAGCAGUGAGAGACAGGAAGUAUAGUGAUGUUAUAUGAGAGAAUGCCCUUGGCAGCGUGUGCGGUUGG [SSTheophylB.W],191 nM,158 nM,155 nM,148 nM,131 nM
UAAGAUUCUGUCUCAUUGAGACAGAAUCAACGAGGACCGGUACGGCCGCCACUCGGGUCCUAGAGUGAUGUUCUAAUAAUAUAAU [AK1 SS Tryptophan A],283 nM,350 nM,296 nM,369 nM,176 nM
CAAGUCGAAAAGUGAUGUUUUUCAUACGAUACCAGCAACCAGACAUGCCCUUGGCAGCGUCCAUUACGUUUCUGAGCCCGUACAG [theeternabot_exclusion_KL_Theo_A_40],360 nM,336 nM,389 nM,388 nM,308 nM
AAAAUAAGCCAGUGAUGUUGGUGUCCAGAUACCAGCGACGAAAGUCGCCCUUGGCAGCUGUGGACGUACAAAAUAAGUACGUCCU,1030 nM,760 nM,1140 nM,957 nM,1120 nM
AUCGUUGUCUGAGGAUAUCGGUUAUCUGUAGUGAUGUUACAGUAUAUUGAUAUUAAAGAUUCUAUUCGAGAAGGCAGACAACGUA [JR_Nu3_ExcFMNB_Sub023],75.5 nM,62.7 nM,67.2 nM,57.9 nM,61.9 nM
GGUGUGCCAAGUGAUGUUUGGCGUUCUCACCGAGGACCGGUACGGCCGCCACUCGUUAACUGACCAAGUAUCUUUACCUCGGAGA [theeternabot_sameState_KL_Trp_A_8],168 nM,141 nM,159 nM,187 nM,156 nM
AUAAACUUGCAGUGAUGUUGCAAGUAAGACUAGGAUAUCAGGAAACUGAGAAGGAGUCAUCUCCUUCAACUGCAAGAAUGAAGGA [[K1]-[K2]-[F1]-[F2]-[F]'-[K]'-[F]''_Design4],147 nM,108 nM,129 nM,104 nM,133 nM
GAGAUAGAGGCGGCCGCCACUAGUGAUGUUAGUGAUGUUAGAUAGAGAAUAGAACAGAGAUAGGAUAGGACCGGGCCAGAUAGAG [Tryptophan B Exclusion; Euphoria Solution],69.4 nM,60.8 nM,57.4 nM,52.1 nM,68.6 nM
CAUUCAGUGAUGUUGGAAGGCGAGCGGGAUACCAGCGGAGACUCACGCCCUUGGCAGCCCACAUAUCCCAGGUAGAUAAUAGUUC [Same State - Theophylline A (Freestyle 6)],237 nM,139 nM,203 nM,189 nM,188 nM
CAUACGCAUGGAGGAUAUGAGAUUUCUCAUAUUAUUUAAUAUUCUCAGUGAUGUUGGGAUUUAAACUCAGAAGGCCAUGUGUAUG [Ex FMN B 7],259 nM,159 nM,159 nM,234 nM,169 nM
CCUCUCCUUGAUAGUGAUGUUAUCAAGGACAAGGAUAUCAUCUCAAUGAGAAGGUGUCCUUGAUAACAUGGAGGUCUGAAACAGA [Omei KL FMN A Exc C v1],138 nM,126 nM,136 nM,125 nM,122 nM
